Six molecules from patent publication US20240025959A1 (UNIVERSITY OF SOUTHERN CALIFORNIA, published 2024) can be followed below.

To fix the notation:
B3: ATG9A (mouse, endogenous in BMDMs) (other, UniProt Q68FE2 2-839, looked up)
chain: AQFDTEYQRLEASYSDSPPGEEDLLVHVAEGSKSPWHHIENLDLFFSRVYNLHQKNGFTCMLIGEMFELMQFLFVVAFTTFLVSCVDYDILFANKMVNHSLHPTEPVKVTLPDAFLPAQVCSARIQENGSLITILVIAGVFWIHRLIKFIYNICCYWEIHSFYLHALRIPMSALPYCTWQEVQARIVQTQKEHQICIHKRELTELDIYHRILRFQNYMVALVNKSLLPLRFRLPGLGEVVFFTRGLKYNFELILFWGPGSLFLNEWSLKAEYKRGGQRLELAQRLSNRILWIGIANFLLCPLILIWQILYAFFSYAEVLKREPGALGARCWSLYGRCYLRHFNELEHELQSRLNRGYKPASKYMNCFLSPLLTLLAKNGAFFAGSILAVLIALTIYDEDVLAVEHVLTTVTLLGVTVTVCRSFIPDQHMVFCPEQLLRVILAHIHYMPDHWQGNAHRSQTRDEFAQLFQYKAVFILEELLSPIVTPLILIFCLRPRALEIIDFFRNFTVEVVGVGDTCSFAQMDVRQHGHPQWLSGGQTEASVYQQAEDGKTELSLMHFAITNPGWQPPRESTAFLGFLKEQVQRDGAAAGLAQGGLLPENALFTSIQSLQSESEPLSLIANVVAGSSCRGPSLSRDLQGSRHRADVASALRSFSPLQPGAAPQGRVPSTMTGSGVDARTASSGSSVWEGQLQSLVLSEYASTEMSLHALYMHQLHKQQTQAEPERHVWHRRESDESGESAPEEGGEGARAPQPIPRSASYPCATPRPGAPETTALHGGFQRRYGGITDPGTVPRGPSHFSRLPLGGWAEDGQPASRHPEPVPEEGSEDELPPQVHKV
notes: Endogenous protein in mouse BMDM lysates

In assay [1] the target is T1, ATG9A (human) (human, UniProt Q7Z3C6 1-839).
T1 construct: Transmembrane protein; co-IP from RIPA lysates; Tagged and endogenous human forms kept under one id; also called Flag-ATG9A; HA-ATG9A
T1 sequence (looked up): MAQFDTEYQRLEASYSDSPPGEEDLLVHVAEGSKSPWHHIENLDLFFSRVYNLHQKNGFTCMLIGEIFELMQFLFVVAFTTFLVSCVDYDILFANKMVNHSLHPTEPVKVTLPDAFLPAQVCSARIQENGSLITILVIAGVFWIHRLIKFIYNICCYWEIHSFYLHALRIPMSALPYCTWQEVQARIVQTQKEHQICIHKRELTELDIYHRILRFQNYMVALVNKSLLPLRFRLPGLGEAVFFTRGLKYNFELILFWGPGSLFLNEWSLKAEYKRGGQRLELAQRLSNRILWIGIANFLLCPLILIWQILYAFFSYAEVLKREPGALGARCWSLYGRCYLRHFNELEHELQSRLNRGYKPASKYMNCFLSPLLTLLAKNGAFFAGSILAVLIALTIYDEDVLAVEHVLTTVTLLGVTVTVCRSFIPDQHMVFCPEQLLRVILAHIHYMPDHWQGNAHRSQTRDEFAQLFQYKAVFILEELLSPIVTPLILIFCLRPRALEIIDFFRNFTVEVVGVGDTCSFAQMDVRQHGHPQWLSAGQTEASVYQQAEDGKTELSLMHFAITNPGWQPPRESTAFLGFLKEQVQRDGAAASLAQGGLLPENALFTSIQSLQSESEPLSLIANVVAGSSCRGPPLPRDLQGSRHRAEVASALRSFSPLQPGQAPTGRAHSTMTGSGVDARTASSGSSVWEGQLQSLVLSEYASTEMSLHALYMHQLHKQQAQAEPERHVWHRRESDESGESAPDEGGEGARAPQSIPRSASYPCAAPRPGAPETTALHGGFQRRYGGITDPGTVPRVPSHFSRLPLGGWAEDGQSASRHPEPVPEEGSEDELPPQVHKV
Kind of assay: endogenous co-IP; WT and BECN2 KO THP-1 cell lysates immunoprecipitated with ATG9A antibodies, immunoblot (FIG. 32D).
Description: (§1) Whole cell lysates obtained 24 h post-transfection or via ligand stimulation were obtained using RIPA lysis buffer and shook on ice for 15 min. The HEK293T cell lysates were immunoprecipitated with anti-Flag conjugated beads (BioLegend) at 4° C. overnight. […] The beads were washed five times with RIPA lysis buffer, and immunoprecipitates were eluted with 2×SDS loading buffer and subjected to SDS-PAGE gel electrophoresis, followed by immunoblotting. The secondary antibody (Veriblot for IP detection, HRP-conjugated) that only recognized native IgG but not denatured IgG was applied for immunoblotting of endogenous proteins in immunoprecipitates.

For assay [2], the target named is T2, Beclin 2 (human, full length) (human, UniProt A8MW95 1-431).
T2 construct: All tagged and endogenous human forms are kept under this one id; the form used is named under assay; also called BECN2; Flag-Beclin 2
T2 sequence: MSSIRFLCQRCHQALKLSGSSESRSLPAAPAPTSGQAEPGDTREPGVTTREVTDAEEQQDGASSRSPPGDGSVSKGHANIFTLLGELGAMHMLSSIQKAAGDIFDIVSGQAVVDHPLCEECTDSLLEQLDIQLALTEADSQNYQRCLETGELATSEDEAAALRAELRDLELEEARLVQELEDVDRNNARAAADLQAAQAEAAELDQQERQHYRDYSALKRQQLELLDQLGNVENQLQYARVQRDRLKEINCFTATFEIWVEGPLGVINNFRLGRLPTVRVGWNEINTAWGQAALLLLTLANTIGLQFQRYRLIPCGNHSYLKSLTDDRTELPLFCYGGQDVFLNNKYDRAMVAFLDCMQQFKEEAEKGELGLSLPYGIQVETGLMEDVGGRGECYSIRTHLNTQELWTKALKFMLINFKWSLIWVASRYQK
Put plainly: co-IP with anti-Flag beads and immunoblot; HEK293T cells co-transfected with HA-Beclin 2 and Flag-tagged SNARE or RAB proteins (FIG. 32A). A general note: Immunoblotting shows a protein as a band on a membrane.
Description: as §1

In assay [3] the target is T2, Beclin 2 (human, full length). Put plainly: co-IP with anti-Flag beads and immunoblot; HEK293T cells co-transfected with HA-Beclin 2 and a Flag-tagged plasmid (FIG. 25A).
Description: Cell lysates were immunoprecipitated with anti-Flag beads and immunoblotted using indicated antibodies. […] Cell lysates were immunoprecipitated with anti-Flag beads and immunoblotted using indicated antibodies.
Whole cell lysates obtained 24 h post-transfection or via ligand stimulation were obtained using RIPA lysis buffer and shook on ice for 15 min. The HEK293T cell lysates were immunoprecipitated with anti-Flag conjugated beads (BioLegend) at 4° C. overnight.
Assay [4] deals with NLRP3 (mouse, endogenous in BMDMs) (mouse, UniProt Q8R4B8 1-1033). Kind of assay: endogenous co-IP; WT and Becn2 KO BMDM lysates (untreated or LPS 3 h) immunoprecipitated with ATG9A antibodies, immunoblot (FIG. 30F).
The target in assay [5] is B3. Put plainly: endogenous co-IP; BMDM lysates (untreated or LPS) immunoprecipitated with MEKK3 antibodies, immunoblot (FIG. 12D).
The target in assay [6] is B3. Put plainly: endogenous co-IP; WT and Becn2 KO BMDM lysates (untreated or LPS 3 h) immunoprecipitated with ATG9A antibodies, immunoblot (FIG. 30F).
The target of assay [7] is T1, ATG9A (human). Put plainly: co-IP with anti-Flag beads; WT, BECN2 KO and ULK1 KO HEK293T cells co-transfected with HA-ATG9A and Flag-AIM2 (FIG. 30D).
Description: Pearson's correlation coefficient for colocalization was analyzed using Image J Coloc 2. Graph represents mean±s.e.m. (at least 30 cells were analyzed per condition). Representative images showing the colocalization were obtained using confocal microscopy. Scale bar: 5 μm. […] Pearson's correlation coefficient for colocalization was analyzed using Image J Coloc 2. Graph represents mean±s.e.m. (at least 30 cells were analyzed per condition). Representative images showing the colocalization were obtained using confocal microscopy. Scale bar: 5 μm. […] Data are representative of at least three independent experiments. […] MVBs, multivesicular bodies.

NLRP3 (mouse, endogenous in BMDMs), sequence (Q8R4B8 whole entry): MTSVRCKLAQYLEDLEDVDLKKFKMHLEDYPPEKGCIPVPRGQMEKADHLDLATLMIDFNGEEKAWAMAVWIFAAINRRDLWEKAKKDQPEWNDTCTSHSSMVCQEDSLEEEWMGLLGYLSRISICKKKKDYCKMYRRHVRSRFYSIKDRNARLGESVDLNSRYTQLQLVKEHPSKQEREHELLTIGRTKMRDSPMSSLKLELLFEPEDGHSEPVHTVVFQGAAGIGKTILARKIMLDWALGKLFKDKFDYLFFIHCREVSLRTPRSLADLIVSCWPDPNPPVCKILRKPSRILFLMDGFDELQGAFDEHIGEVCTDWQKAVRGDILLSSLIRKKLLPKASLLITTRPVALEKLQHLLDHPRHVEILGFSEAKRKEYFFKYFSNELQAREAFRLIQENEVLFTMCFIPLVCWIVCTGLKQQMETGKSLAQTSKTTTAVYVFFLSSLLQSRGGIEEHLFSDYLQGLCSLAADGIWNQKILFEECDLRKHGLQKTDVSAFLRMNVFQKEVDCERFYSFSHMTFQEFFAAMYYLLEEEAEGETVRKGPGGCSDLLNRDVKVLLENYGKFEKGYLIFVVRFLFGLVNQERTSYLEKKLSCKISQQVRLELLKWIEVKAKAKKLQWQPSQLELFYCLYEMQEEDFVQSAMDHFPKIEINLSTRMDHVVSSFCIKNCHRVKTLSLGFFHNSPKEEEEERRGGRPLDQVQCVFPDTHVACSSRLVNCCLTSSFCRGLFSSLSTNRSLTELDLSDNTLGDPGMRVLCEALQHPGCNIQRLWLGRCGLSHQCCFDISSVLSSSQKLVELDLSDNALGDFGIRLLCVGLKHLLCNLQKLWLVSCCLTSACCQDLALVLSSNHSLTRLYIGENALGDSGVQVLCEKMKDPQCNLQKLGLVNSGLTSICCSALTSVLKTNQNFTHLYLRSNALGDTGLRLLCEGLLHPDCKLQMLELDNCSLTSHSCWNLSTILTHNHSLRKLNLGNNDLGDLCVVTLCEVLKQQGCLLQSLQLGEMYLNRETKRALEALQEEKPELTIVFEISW

B1: SEC22A (other, human, UniProt Q96IW7 1-307, looked up)
chain: MSMILSASVIRVRDGLPLSASTDYEQSTGMQECRKYFKMLSRKLAQLPDRCTLKTGHYNINFISSLGVSYMMLCTENYPNVLAFSFLDELQKEFITTYNMMKTNTAVRPYCFIEFDNFIQRTKQRYNNPRSLSTKINLSDMQTEIKLRPPYQISMCELGSANGVTSAFSVDCKGAGKISSAHQRLEPATLSGIVGFILSLLCGALNLIRGFHAIESLLQSDGDDFNYIIAFFLGTAACLYQCYLLVYYTGWRNVKSFLTFGLICLCNMYLYELRNLWQLFFHVTVGAFVTLQIWLRQAQGKAPDYDV
B1: the binding result in assay [1] and in assay [2] was “binds” in each case.

B2: caspase 1 (enzyme, human, UniProt P29466 1-404, looked up)
chain: MADKVLKEKRKLFIRSMGEGTINGLLDELLQTRVLNKEEMEKVKRENATVMDKTRALIDSVIPKGAQACQICITYICEEDSYLAGTLGLSADQTSGNYLNMQDSQGVLSSFPAPQAVQDNPAMPTSSGSEGNVKLCSLEEAQRIWKQKSAEIYPIMDKSSRTRLALIICNEEFDSIPRRTGAEVDITGMTMLLQNLGYSVDVKKNLTASDMTTELEAFAHRPEHKTSDSTFLVFMSHGIREGICGKKHSEQVPDILQLNAIFNMLNTKNCPSLKDKPKVIIIQACRGDSPGVVWFKDSVGVSGNLSLPTTEEFEDDAIKKAHIEKDFIAFCSSTPDNVSWRHPTMGSVFIGRLIEHMQEYACSCDVEEIFRKVRFSFEQPDGRAQMPTTERVTLTRCFYLFPGH
notes: also called Flag-caspase 1
Turning to B2, the binding result in assay [3] was “binds”.
Turning to B3, the binding result in assay [4] is “binds”.

B4: MEKK3 (mouse, endogenous in BMDMs) (enzyme, UniProt Q61084 1-626, looked up)
chain: MDEQEALDSIMKDLVALQMSRRTRLSGYETMKNKDTGHPNRQSDVRIKFEHNGERRIIAFSRPVRYEDVEHKVTTVFGQPLDLHYMNNELSILLKNQDDLDKAIDILDRSSSMKSLRILLLSQDRNHTSSSPHSGVSRQVRIKPSQSAGDINTIYQAPEPRSRHLSVSSQNPGRSSPPPGYVPERQQHIARQGSYTSINSEGEFIPETSEQCMLDPLSSAENSLSGSCQSLDRSADSPSFRKSQMSRARSFPDNRKECSDRETQLYDKGVKGGTYPRRYHVSVHHKDYNDGRRTFPRIRRHQGNLFTLVPSSRSLSTNGENMGVAVQYLDPRGRLRSADSENALTVQERNVPTKSPSAPINWRRGKLLGQGAFGRVYLCYDVDTGRELASKQVQFDPDSPETSKEVSALECEIQLLKNLQHERIVQYYGCLRDRAEKILTIFMEYMPGGSVKDQLKAYGALTESVTRKYTRQILEGMSYLHSNMIVHRDIKGANILRDSAGNVKLGDFGASKRLQTICMSGTGIRSVTGTPYWMSPEVISGEGYGRKADVWSLGCTVVEMLTEKPPWAEYEAMAAIFKIATQPTNPQLPSHISEHGRDFLRRIFVEARQRPSAEELLTHHFAQLVY
notes: Endogenous protein in mouse BMDM lysates; also called Map3k3
As for B4, the binding result in assay [5] is “binds”.

B5: AIM2 (mouse, endogenous in BMDMs) (other, UniProt Q91VJ1 1-354, looked up)
chain: MESEYREMLLLTGLDHITEEELKRFKYFALTEFQIARSTLDVADRTELADHLIQSAGAASAVTKAINIFQKLNYMHIANALEEKKKEAERKLMTNTKKRGTQKVENRSQAENCSAASATRSDNDFKEQAATEVCPQAKPQKKQMVAEQEAIREDLQKDPLVVTVLKAINPFECETQEGRQEIFHATVATETDFFFVKVLNAQFKDKFIPKRTIKISNYLWHSNFMEVTSSSVVVDVESNHEVPNNVVKRARETPRISKLKIQPCGTIVNGLFKVQKITEEKDRVLYGIHDKTGTMEVLVLGNPSKTKCEEGDKIRLTFFEVSKNGVKIQLKSGPCSFFKVIKAAKPKTDMKSVE
Regarding B5, the binding result in assay [6] was “binds”.

B6: AIM2 (human, full length) (other, UniProt O14862 1-343, looked up)
chain: MESKYKEILLLTGLDNITDEELDRFKFFLSDEFNIATGKLHTANRIQVATLMIQNAGAVSAVMKTIRIFQKLNYMLLAKRLQEEKEKVDKQYKSVTKPKPLSQAEMSPAASAAIRNDVAKQRAAPKVSPHVKPEQKQMVAQQESIREGFQKRCLPVMVLKAKKPFTFETQEGKQEMFHATVATEKEFFFVKVFNTLLKDKFIPKRIIIIARYYRHSGFLEVNSASRVLDAESDQKVNVPLNIIRKAGETPKINTLQTQPLGTIVNGLFVVQKVTEKKKNILFDLSDNTGKMEVLGVRNEDTMKCKEGDKVRLTFFTLSKNGEKLQLTSGVHSTIKVIKAKKKT
notes: also called Flag-AIM2; GFP-AIM2
Consider B6, for which the binding result in assay [7] was “binds”.
